Data: PMC6138625

Legend:
Assay in all cases: magnetic tweezers SMBA
[1] = test system: yUPF1 helicase domain (Saccharomyces cerevisiae); settings: no ATP; 7 pN; n=11; SMBA in helicase buffer without ATP (composition not in the material), 1-20 nM helicase, force cycles >15 pN / 7 pN / <3 pN
[2] = test system: UPF1/BC (Saccharomyces cerevisiae / Homo sapiens chimera); settings: no ATP; slides; SMBA in helicase buffer without ATP (composition not in the material), 1-20 nM helicase, force cycles >15 pN / 7 pN / <3 pN
[3] = test system: IGHMBP2/BC (Homo sapiens / Saccharomyces cerevisiae chimera); settings: no ATP; SMBA in helicase buffer without ATP (composition not in the material), 1-20 nM helicase, force cycles >15 pN / 7 pN / <3 pN
[4] = test system: UPF1 R487S (R-S) (Saccharomyces cerevisiae); settings: SMBA in helicase buffer without ATP (composition not in the material), 1-20 nM helicase, force cycles >15 pN / 7 pN / <3 pN
[5] = test system: IGHMBP2-FL (Homo sapiens); settings: no ATP; 7 pN; n=27; SMBA in helicase buffer without ATP (composition not in the material), 1-20 nM helicase, force cycles >15 pN / 7 pN / <3 pN
[6] = test system: IGHMBP2 helicase core (Homo sapiens); settings: no ATP; 7 pN; n=48; SMBA in helicase buffer without ATP (composition not in the material), 1-20 nM helicase, force cycles >15 pN / 7 pN / <3 pN

**Q.** Which results are given for magnetic tweezers DNA hairpin?
**A.** binding signal (s (residence time)) [1]: > 5500; binding signal (s (residence time)) [2]: 930; binding signal (s (residence time)) [3]: 9540; binding signal (s (residence time)) ([4]; ADPNP, sliding -0.109 nm/s, n=58): 1630; binding signal (s (residence time)) ([4]; no ATP, sliding -0.063 nm/s): 1840; binding signal (s (residence time)) [5]: 60; binding signal (s (residence time)) [6]: 20
